Measured values from the Human Domainome abundance scans (Beltran et al. 2025).
± gives the uncertainty stated by the source.

B1: Proto-oncogene vav, residues 782 to 842; numbered along this chain, P15498 (parent)
chain: KYFGTAKARYDFCARDRSELSLKEGDIIKILNKKGQQGWWRGEIYGRVGWFPANYVEEDYS

Variants of: B1
Experiment: abundance fitness (aPCA) (normalised: wild type 0, dead -1); higher = more abundant; growth selection in yeast, the domain comes from the species named
Settings: Homo sapiens

Variant | abundance fitness
R17C | 0.1 ± 0.18
R17P | 0.031 ± 0.11
R17Y | 0.107 ± 0.16
R17M | -0.06 ± 0.1
R17G | -0.012 ± 0.09
R17K | 0.065 ± 0.12
R17W | -0.223 ± 0.11
R17L | 0.035 ± 0.065
R17H | -0.076 ± 0.15
R17E | -0.027 ± 0.11
R17T | -0.027 ± 0.12
R17Q | -0.044 ± 0.1
R17D | -0.046 ± 0.12
R17F | -0.315 ± 0.15
R17V | -0.014 ± 0.058
R17N | 0.061 ± 0.16
R17A | 0.056 ± 0.072
F12Q | -0.553 ± 0.28
F12H | -0.029 ± 0.44
F12M | -0.827 ± 0.28
F12W | -0.114 ± 0.075
F12T | -0.952 ± 0.43
F12R | -0.365 ± 0.066
F12N | -0.671 ± 0.32

Variant | abundance fitness
F12E | -1.01 ± 0.29
F12S | -0.886 ± 0.2
F12P | -1.13 ± 0.38
F12L | -0.813 ± 0.15
F12I | -0.536 ± 0.25
F12K | -1.01 ± 0.44
F12V | -0.763 ± 0.13
F12G | -0.977 ± 0.16
A14M | -0.931 ± 0.23
A14F | -0.804 ± 0.24
A14K | -0.692 ± 0.18
A14S | -0.237 ± 0.072
A14Y | -0.328 ± 0.16
A14Q | -0.541 ± 0.12
A14W | -0.649 ± 0.14
A14H | -0.562 ± 0.23
A14N | -0.742 ± 0.34
A14T | -0.54 ± 0.15
A14P | -0.355 ± 0.12
A14C | -0.83 ± 0.38
A14L | -1.03 ± 0.19
A14V | -0.889 ± 0.15
A14E | -0.873 ± 0.26
L22H | -0.456 ± 0.2

Variant | abundance fitness
L22F | 0.176 ± 0.1
L22A | -0.494 ± 0.12
L22C | -0.405 ± 0.2
L22I | 0.016 ± 0.11
E19G | -0.678 ± 0.14
E19R | -1.08 ± 0.32
E19A | -1 ± 0.34
E19T | -0.838 ± 0.19
E19Y | -0.763 ± 0.38
E19F | -0.657 ± 0.28
E19D | -0.654 ± 0.25
E19L | -0.593 ± 0.098
E19H | -0.137 ± 0.21
E19V | -0.922 ± 0.2
E19S | -0.417 ± 0.094
E19K | -0.885 ± 0.22
E19C | -0.502 ± 0.14
E19Q | -0.103 ± 0.19
E19W | -0.445 ± 0.15
E19M | 0 ± 0.1
C13E | 0.12 ± 0.086
C13L | -0.058 ± 0.057
C13Q | 0.098 ± 0.15
C13H | -0.131 ± 0.24

Variant | abundance fitness
C13P | -0.178 ± 0.1
C13F | -0.006 ± 0.11
C13N | 0.123 ± 0.2
C13T | 0.146 ± 0.1
C13M | -0.119 ± 0.086
C13W | -0.087 ± 0.089
C13R | 0.025 ± 0.063
C13S | 0.028 ± 0.06
C13I | -0.108 ± 0.13
C13Y | -0.198 ± 0.12
C13K | -0.201 ± 0.11
C13A | -0.063 ± 0.066
C13D | -0.28 ± 0.14
C13V | 0.1 ± 0.054
C13G | -0.285 ± 0.062
L20N | -0.691 ± 0.35
L20C | -0.966 ± 0.45
L20K | -0.673 ± 0.24
L20I | -0.342 ± 0.21
L20F | -0.937 ± 0.31
L20G | -0.927 ± 0.18
L20M | -0.756 ± 0.19
L20T | -0.642 ± 0.19
L20Y | -0.64 ± 0.25

Variant | abundance fitness
L20W | -0.919 ± 0.24
L20E | -0.852 ± 0.46
L20R | -0.883 ± 0.15
L20A | -0.768 ± 0.19
L20S | -0.825 ± 0.13
L20V | -0.577 ± 0.1
L20Q | -1.05 ± 0.39
S18W | -0.258 ± 0.084
S18N | 0.024 ± 0.16
S18K | -0.239 ± 0.13
S18P | -0.794 ± 0.23
S18L | -0.368 ± 0.073
S18C | -0.364 ± 0.13
S18V | -0.599 ± 0.11
S18E | -0.277 ± 0.12
S18T | -0.068 ± 0.1
S18G | -0.194 ± 0.081
S18Q | -0.451 ± 0.15
S18M | -0.271 ± 0.091
S18H | -0.096 ± 0.21
S18A | 0.064 ± 0.08
S18D | -0.169 ± 0.2
S18R | -0.156 ± 0.057
S18Y | -0.158 ± 0.14

Variant | abundance fitness
S21E | -0.049 ± 0.12
S21R | -0.742 ± 0.13
S21P | -0.36 ± 0.13
S21I | -0.378 ± 0.26
S21D | 0.153 ± 0.19
S21A | -0.26 ± 0.077
S21F | -0.607 ± 0.15
S21L | -0.653 ± 0.1
S21K | -0.627 ± 0.17
S21C | -0.445 ± 0.13
S21G | -0.34 ± 0.09
S21V | -0.895 ± 0.16
S21Q | -0.594 ± 0.15
S21H | -0.243 ± 0.15
S21T | -0.265 ± 0.12
S21N | -0.333 ± 0.16
S21Y | -0.513 ± 0.22
D16Q | -0.108 ± 0.11
D16H | 0.022 ± 0.11
D16T | -0.135 ± 0.091
D16M | -0.499 ± 0.2
D16P | -0.839 ± 0.22
D16W | -0.617 ± 0.081
D16E | -0.225 ± 0.11

Variant | abundance fitness
D16L | -0.418 ± 0.072
D16G | -0.11 ± 0.071
D16V | -0.308 ± 0.071
D16S | 0 ± 0.069
D16K | -0.174 ± 0.12
D16R | -0.112 ± 0.064
D16F | -0.618 ± 0.17
D16Y | -0.445 ± 0.13
R15S | -0.386 ± 0.089
R15Y | -0.414 ± 0.14
R15P | -0.925 ± 0.37
R15M | -0.507 ± 0.14
R15V | -0.471 ± 0.093
R15K | -0.169 ± 0.13
R15T | -0.181 ± 0.1
R15F | -0.78 ± 0.23
R15G | -0.316 ± 0.07
R15N | -0.411 ± 0.19
R15C | -0.444 ± 0.15
R15H | -0.293 ± 0.31
R15D | -0.466 ± 0.32
R15A | -0.418 ± 0.12
R15Q | -0.26 ± 0.11
